{
  "source": "paper PMC7873046",
  "about": "“Structure of the Complete Dimeric Human GDAP1 Core Domain Provides Insights into Ligand Binding and Clustering of Disease Mutations” (Frontiers in Molecular Biosciences, 2021)",
  "key": {"GDAP1∆295-358": {"molecular_target": "T1, GDAP1∆295-358 (Homo sapiens, UniProt Q8TB36)", "T1 construct": "C-terminally truncated (residues 295-358 deleted), alpha-loop insertion kept; N-terminal tag cut with TEV; E. coli BL21(DE3); monomer/dimer equilibrium", "T1 sequence (Q8TB36 1-294)": "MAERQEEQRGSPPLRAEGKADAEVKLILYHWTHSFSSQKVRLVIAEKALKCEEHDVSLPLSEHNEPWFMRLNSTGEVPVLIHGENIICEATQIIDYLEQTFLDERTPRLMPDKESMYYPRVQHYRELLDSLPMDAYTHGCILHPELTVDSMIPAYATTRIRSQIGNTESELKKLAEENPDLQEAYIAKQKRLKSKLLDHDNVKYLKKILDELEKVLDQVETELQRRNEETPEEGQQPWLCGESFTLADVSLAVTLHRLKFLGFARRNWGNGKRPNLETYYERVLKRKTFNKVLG", "experiment": "isothermal titration calorimetry", "type": "binding", "source_text": "isothermal titration calorimetry on GDAP1∆295-358"}, "GDAP1∆319-358": {"molecular_target": "T2, GDAP1∆319-358 (Homo sapiens, UniProt Q8TB36)", "T2 construct": "C-terminally truncated (residues 319-358 deleted; hydrophobic and transmembrane region), alpha-loop insertion kept; N-terminal tag cut with TEV; E. coli BL21(DE3); monomer/dimer equilibrium", "T2 sequence (Q8TB36 1-318)": "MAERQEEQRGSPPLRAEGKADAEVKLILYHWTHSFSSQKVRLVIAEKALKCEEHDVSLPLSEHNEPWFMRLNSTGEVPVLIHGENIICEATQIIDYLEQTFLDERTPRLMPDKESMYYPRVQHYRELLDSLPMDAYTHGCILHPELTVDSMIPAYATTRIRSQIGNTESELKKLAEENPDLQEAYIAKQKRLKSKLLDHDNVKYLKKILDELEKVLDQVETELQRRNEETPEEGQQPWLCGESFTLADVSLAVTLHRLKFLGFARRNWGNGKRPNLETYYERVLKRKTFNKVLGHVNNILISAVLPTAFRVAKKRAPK", "experiment": "differential scanning fluorimetry (SYPRO Orange)", "type": "binding", "conditions": "pH 7.5, 300 mM NaCl, 2% DMSO; HA titrated up to 250 µM"}, "[1]": {"molecular_target": "the molecule itself", "experiment": "SEC-SAXS; 50 µL of protein at 8.5-10 mg/ml injected into BioSEC3-300 or Superdex 75 10/300 GL increase; 25 mM HEPES pH 7.5, 300 mM NaCl; +15 °C; GDAP1∆295-358 and GDAP1∆319-358 also with hexadecanedioic acid (HA), which gave a higher monomer fraction"}, "[2]": {"molecular_target": "the molecule itself", "experiment": "non-reducing SDS-PAGE; SEC eluates of purified proteins on a non-reducing gel (GDAP1L1 also on a reducing gel); shows the covalent (disulfide) dimer"}, "[3]": {"molecular_target": "the molecule itself", "experiment": "SEC-MALS; Superdex 75 10/300 GL increase in SEC buffer (25 mM HEPES pH 7.5, 300 mM NaCl); protein 1-10 mg/ml, 15-150 µg injected"}},
  "data": [
    {"molecule": "O=C(O)CCCCCCCCCCCCCCC(=O)O", "note": "[hexadecanedioic acid]", "values": [
      {"measurement": "Kd", "setting": "GDAP1∆295-358", "value": "2000 ± 800", "unit": "nM"},
      {"measurement": "dTm", "setting": "GDAP1∆319-358", "value": "~ 3 °C"}
    ]},
    {"molecule": "GDAP1∆319-358 (domain or fragment, human, UniProt Q8TB36 1-318, looked up, The constructs were put into pTH27 (N-terminal His6) and pDEST-Trx (N-terminal thioredoxin); Tag cleaved with TEV protease; also called ganglioside-induced differentiation-associated protein 1, C-terminally truncated; source: E. coli BL21 (DE3), purified (Ni-NTA, TEV cleavage, SEC); not shown: His6, N-terminal, cleaved) MAERQEEQRGSPPLRAEGKADAEVKLILYHWTHSFSSQKVRLVIAEKALKCEEHDVSLPLSEHNEPWFMRLNSTGEVPVLIHGENIICEATQIIDYLEQTFLDERTPRLMPDKESMYYPRVQHYRELLDSLPMDAYTHGCILHPELTVDSMIPAYATTRIRSQIGNTESELKKLAEENPDLQEAYIAKQKRLKSKLLDHDNVKYLKKILDELEKVLDQVETELQRRNEETPEEGQQPWLCGESFTLADVSLAVTLHRLKFLGFARRNWGNGKRPNLETYYERVLKRKTFNKVLGHVNNILISAVLPTAFRVAKKRAPK", "values": [
      {"measurement": "stoichiometry N", "setting": "[1]", "value": 2}
    ]},
    {"molecule": "GDAP1∆295-358 (domain or fragment, human, UniProt Q8TB36 1-294, looked up, The constructs were put into pTH27 (N-terminal His6) and pDEST-Trx (N-terminal thioredoxin); also called ganglioside-induced differentiation-associated protein 1, C-terminally truncated; GDAP1 core domain; source: E. coli BL21 (DE3), purified (Ni-NTA, TEV cleavage, SEC); not shown: His6, N-terminal, cleaved) MAERQEEQRGSPPLRAEGKADAEVKLILYHWTHSFSSQKVRLVIAEKALKCEEHDVSLPLSEHNEPWFMRLNSTGEVPVLIHGENIICEATQIIDYLEQTFLDERTPRLMPDKESMYYPRVQHYRELLDSLPMDAYTHGCILHPELTVDSMIPAYATTRIRSQIGNTESELKKLAEENPDLQEAYIAKQKRLKSKLLDHDNVKYLKKILDELEKVLDQVETELQRRNEETPEEGQQPWLCGESFTLADVSLAVTLHRLKFLGFARRNWGNGKRPNLETYYERVLKRKTFNKVLG", "values": [
      {"measurement": "stoichiometry N", "setting": "[1]", "value": 2}
    ]},
    {"molecule": "GDAP1∆303-358 Y29F (domain or fragment, human, UniProt Q8TB36 1-302, looked up, Point mutant of m2, made by site-directed mutagenesis PCR; source: E. coli BL21 (DE3), purified (Ni-NTA, TEV cleavage, SEC); not shown: His6, N-terminal, cleaved) MAERQEEQRGSPPLRAEGKADAEVKLILFHWTHSFSSQKVRLVIAEKALKCEEHDVSLPLSEHNEPWFMRLNSTGEVPVLIHGENIICEATQIIDYLEQTFLDERTPRLMPDKESMYYPRVQHYRELLDSLPMDAYTHGCILHPELTVDSMIPAYATTRIRSQIGNTESELKKLAEENPDLQEAYIAKQKRLKSKLLDHDNVKYLKKILDELEKVLDQVETELQRRNEETPEEGQQPWLCGESFTLADVSLAVTLHRLKFLGFARRNWGNGKRPNLETYYERVLKRKTFNKVLGHVNNILIS", "values": [
      {"measurement": "stoichiometry N", "setting": "[2]", "value": 2}
    ]},
    {"molecule": "GDAP1∆303-358 (domain or fragment, human, UniProt Q8TB36 1-302, looked up, The constructs were put into pTH27 (N-terminal His6) and pDEST-Trx (N-terminal thioredoxin); Tag cleaved with TEV protease; also called complete human GDAP1 core domain; source: E. coli BL21 (DE3), purified (Ni-NTA, TEV cleavage, SEC); not shown: His6, N-terminal, cleaved) MAERQEEQRGSPPLRAEGKADAEVKLILYHWTHSFSSQKVRLVIAEKALKCEEHDVSLPLSEHNEPWFMRLNSTGEVPVLIHGENIICEATQIIDYLEQTFLDERTPRLMPDKESMYYPRVQHYRELLDSLPMDAYTHGCILHPELTVDSMIPAYATTRIRSQIGNTESELKKLAEENPDLQEAYIAKQKRLKSKLLDHDNVKYLKKILDELEKVLDQVETELQRRNEETPEEGQQPWLCGESFTLADVSLAVTLHRLKFLGFARRNWGNGKRPNLETYYERVLKRKTFNKVLGHVNNILIS", "values": [
      {"measurement": "stoichiometry N", "setting": "[3]", "value": 2}
    ]}
  ]
}
